Laboratory results published in article PMC9482650, “Quantitative fragmentomics allow affinity mapping of interactomes” (Nature Communications, 2022).

T1: LIN7B, Q9HAP6
T1 sequence (Q9HAP6 88-185, limits assumed, looked up): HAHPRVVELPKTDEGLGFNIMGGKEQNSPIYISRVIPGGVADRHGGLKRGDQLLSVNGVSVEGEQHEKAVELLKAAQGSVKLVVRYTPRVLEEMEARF

T2: NHERF3_1, Q5T2W1
T2 sequence (Q5T2W1 4-100, limits assumed, looked up): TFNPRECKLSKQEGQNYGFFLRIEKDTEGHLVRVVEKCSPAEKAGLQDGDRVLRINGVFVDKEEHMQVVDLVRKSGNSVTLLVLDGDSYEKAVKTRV

T3: SNTG1, Q9NSN8
T3 sequence (Q9NSN8 52-150, limits assumed, looked up): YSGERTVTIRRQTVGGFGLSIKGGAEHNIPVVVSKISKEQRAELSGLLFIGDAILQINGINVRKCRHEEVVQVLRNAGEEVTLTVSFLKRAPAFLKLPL

T4: LRRC7, Q96NW7
T4 sequence (Q96NW7 1440-1537, limits assumed, looked up): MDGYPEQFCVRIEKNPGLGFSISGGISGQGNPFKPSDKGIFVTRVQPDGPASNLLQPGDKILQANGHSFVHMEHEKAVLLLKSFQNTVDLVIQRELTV

T5: PCLO, Q9Y6V0
T5 sequence (Q9Y6V0 4491-4600, limits assumed, looked up): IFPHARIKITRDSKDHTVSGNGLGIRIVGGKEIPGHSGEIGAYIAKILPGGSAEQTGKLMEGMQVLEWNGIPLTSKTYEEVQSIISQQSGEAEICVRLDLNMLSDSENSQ

T6: CARD11, Q9BXL7
T6 sequence (Q9BXL7 662-765, limits assumed, looked up): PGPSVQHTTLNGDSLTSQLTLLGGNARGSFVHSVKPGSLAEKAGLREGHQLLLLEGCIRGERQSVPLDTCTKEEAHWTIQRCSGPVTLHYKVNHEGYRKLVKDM

T7: HTRA3, P83110
T7 sequence (P83110 354-453, limits assumed, looked up): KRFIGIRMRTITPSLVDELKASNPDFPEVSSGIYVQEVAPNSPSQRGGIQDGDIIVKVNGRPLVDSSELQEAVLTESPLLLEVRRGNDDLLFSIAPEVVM

T8: NHERF3_3, Q5T2W1
T8 sequence (Q5T2W1 238-333, limits assumed, looked up): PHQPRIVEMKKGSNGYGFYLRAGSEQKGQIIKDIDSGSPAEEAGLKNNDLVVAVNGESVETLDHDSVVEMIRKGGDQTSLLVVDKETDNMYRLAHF

T9: LNX2_2, Q8N448
T9 sequence (Q8N448 334-432, limits assumed, looked up): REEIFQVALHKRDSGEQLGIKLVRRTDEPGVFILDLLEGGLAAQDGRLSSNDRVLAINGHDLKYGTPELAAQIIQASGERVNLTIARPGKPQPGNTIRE


Target: Inadl_10, Q8NI35
Assay: holdup assay
Set-up: key: below the threshold = too weak to quantify, mostly under pKd 3.1 to 4
Conditions: plain residues with an end cap or a label only (N-terminal biotin on a linker: ado-ado)

Inadl_10, Q8NI35, sequence (Q8NI35 1673-1763): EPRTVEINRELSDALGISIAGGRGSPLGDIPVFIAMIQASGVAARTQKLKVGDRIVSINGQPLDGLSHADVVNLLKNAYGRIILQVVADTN

pKd | Binder
below the threshold | ILRKSTTTTV [PRR16, Q569H4]

Target: GRIP2_7, Q9C0E4
Assay: holdup assay
Set-up: key: below the threshold = too weak to quantify, mostly under pKd 3.1 to 4
Conditions: plain residues with an end cap or a label only (N-terminal biotin on a linker: ado-ado)

GRIP2_7, Q9C0E4, sequence (Q9C0E4 934-1023): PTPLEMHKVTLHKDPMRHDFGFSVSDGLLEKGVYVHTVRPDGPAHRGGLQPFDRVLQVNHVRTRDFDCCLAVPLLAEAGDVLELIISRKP

pKd | Binder
below the threshold | ILRKSTTTTV [PRR16, Q569H4]

Target: GRIP2_5, Q9C0E4
Assay: holdup assay
Set-up: key: below the threshold = too weak to quantify, mostly under pKd 3.1 to 4
Conditions: plain residues with an end cap or a label only (N-terminal biotin on a linker: ado-ado)

GRIP2_5, Q9C0E4, sequence (Q9C0E4 544-642): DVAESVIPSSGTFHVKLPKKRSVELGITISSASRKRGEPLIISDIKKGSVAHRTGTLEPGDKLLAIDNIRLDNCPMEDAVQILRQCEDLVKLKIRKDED

pKd | Binder
below the threshold | ILRKSTTTTV [PRR16, Q569H4]

Target: Inadl_5, Q8NI35
Assay: holdup assay
Set-up: key: below the threshold = too weak to quantify, mostly under pKd 3.1 to 4
Conditions: plain residues with an end cap or a label only (N-terminal biotin on a linker: ado-ado)

Inadl_5, Q8NI35, sequence (Q8NI35 673-780): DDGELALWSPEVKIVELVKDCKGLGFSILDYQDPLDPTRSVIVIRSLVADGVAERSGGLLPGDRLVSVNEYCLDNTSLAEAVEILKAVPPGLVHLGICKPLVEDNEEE

pKd | Binder
below the threshold | ILRKSTTTTV [PRR16, Q569H4]

Target: IL16_3, Q14005
Assay: holdup assay
Set-up: key: below the threshold = too weak to quantify, mostly under pKd 3.1 to 4
Conditions: plain residues with an end cap or a label only (N-terminal biotin on a linker: ado-ado)

IL16_3, Q14005, sequence (Q14005 1107-1207): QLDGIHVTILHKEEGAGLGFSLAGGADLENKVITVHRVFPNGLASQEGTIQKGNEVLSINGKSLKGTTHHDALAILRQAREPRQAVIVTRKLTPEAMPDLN

pKd | Binder
below the threshold | ILRKSTTTTV [PRR16, Q569H4]

Target: SCRIB_2, Q14160
Assay: holdup assay
Set-up: key: below the threshold = too weak to quantify, mostly under pKd 3.1 to 4
Conditions: plain residues with an end cap or a label only (N-terminal biotin on a linker: ado-ado)

SCRIB_2, Q14160, sequence (Q14160 857-960): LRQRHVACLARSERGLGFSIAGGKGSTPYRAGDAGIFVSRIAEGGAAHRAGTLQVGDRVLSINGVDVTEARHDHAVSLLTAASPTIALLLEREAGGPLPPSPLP

pKd | Binder
below the threshold | ILRKSTTTTV [PRR16, Q569H4]

Target: T1, LIN7B, Q9HAP6
Assay: holdup assay
Set-up: key: below the threshold = too weak to quantify, mostly under pKd 3.1 to 4
Conditions: plain residues with an end cap or a label only (N-terminal biotin on a linker: ado-ado)

pKd | Binder
below the threshold | ILRKSTTTTV [PRR16, Q569H4]

Target: NHERF4_1, Q86UT5-2
Assay: holdup assay
Set-up: key: below the threshold = too weak to quantify, mostly under pKd 3.1 to 4
Conditions: plain residues with an end cap or a label only (N-terminal biotin on a linker: ado-ado)

NHERF4_1, Q86UT5-2, sequence (Q86UT5 other isoform, or with tags, fused parts or gaps): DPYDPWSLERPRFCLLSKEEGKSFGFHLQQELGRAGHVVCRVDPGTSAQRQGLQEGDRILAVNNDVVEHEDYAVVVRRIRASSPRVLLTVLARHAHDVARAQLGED

pKd | Binder
below the threshold | ILRKSTTTTV [PRR16, Q569H4]

Target: T2, NHERF3_1, Q5T2W1
Assay: holdup assay
Set-up: key: below the threshold = too weak to quantify, mostly under pKd 3.1 to 4
Conditions: plain residues with an end cap or a label only (N-terminal biotin on a linker: ado-ado)

pKd | Binder
below the threshold | ILRKSTTTTV [PRR16, Q569H4]

Target: PICK1, Q9NRD5
Assay: holdup assay
Set-up: key: below the threshold = too weak to quantify, mostly under pKd 3.1 to 4
Conditions: plain residues with an end cap or a label only (N-terminal biotin on a linker: ado-ado)

PICK1, Q9NRD5, sequence (Q9NRD5 17-115): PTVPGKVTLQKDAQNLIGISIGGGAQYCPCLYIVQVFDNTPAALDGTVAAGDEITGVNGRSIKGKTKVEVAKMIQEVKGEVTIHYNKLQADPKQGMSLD

pKd | Binder
3.95 | ILRKSTTTTV [PRR16, Q569H4]

Target: T3, SNTG1, Q9NSN8
Assay: holdup assay
Set-up: key: below the threshold = too weak to quantify, mostly under pKd 3.1 to 4
Conditions: plain residues with an end cap or a label only (N-terminal biotin on a linker: ado-ado)

pKd | Binder
3.49 | ILRKSTTTTV [PRR16, Q569H4]

Target: DLG5_1, Q8TDM6
Assay: holdup assay
Set-up: key: below the threshold = too weak to quantify, mostly under pKd 3.1 to 4
Conditions: plain residues with an end cap or a label only (N-terminal biotin on a linker: ado-ado)

DLG5_1, Q8TDM6, sequence (Q8TDM6 617-713): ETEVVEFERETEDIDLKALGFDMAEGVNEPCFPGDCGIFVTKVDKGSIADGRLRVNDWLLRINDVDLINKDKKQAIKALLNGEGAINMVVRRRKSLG

pKd | Binder
below the threshold | ILRKSTTTTV [PRR16, Q569H4]

Target: DLG4_3, P78352
Assay: holdup assay
Set-up: key: below the threshold = too weak to quantify, mostly under pKd 3.1 to 4
Conditions: plain residues with an end cap or a label only (N-terminal biotin on a linker: ado-ado)

DLG4_3, P78352, sequence (P78352 306-403): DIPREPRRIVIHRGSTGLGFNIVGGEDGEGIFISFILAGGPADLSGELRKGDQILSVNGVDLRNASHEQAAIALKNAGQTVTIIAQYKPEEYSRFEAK

pKd | Binder
4.12 | ILRKSTTTTV [PRR16, Q569H4]

Target: T4, LRRC7, Q96NW7
Assay: holdup assay
Set-up: key: below the threshold = too weak to quantify, mostly under pKd 3.1 to 4
Conditions: plain residues with an end cap or a label only (N-terminal biotin on a linker: ado-ado)

pKd | Binder
below the threshold | ILRKSTTTTV [PRR16, Q569H4]

Target: T5, PCLO, Q9Y6V0
Assay: holdup assay
Set-up: key: below the threshold = too weak to quantify, mostly under pKd 3.1 to 4
Conditions: plain residues with an end cap or a label only (N-terminal biotin on a linker: ado-ado)

pKd | Binder
below the threshold | ILRKSTTTTV [PRR16, Q569H4]

Target: T6, CARD11, Q9BXL7
Assay: holdup assay
Set-up: key: below the threshold = too weak to quantify, mostly under pKd 3.1 to 4
Conditions: plain residues with an end cap or a label only (N-terminal biotin on a linker: ado-ado)

pKd | Binder
below the threshold | ILRKSTTTTV [PRR16, Q569H4]

Target: NHERF4_2, Q86UT5
Assay: holdup assay
Set-up: key: below the threshold = too weak to quantify, mostly under pKd 3.1 to 4
Conditions: plain residues with an end cap or a label only (N-terminal biotin on a linker: ado-ado)

NHERF4_2, Q86UT5, sequence (Q86UT5 220-308): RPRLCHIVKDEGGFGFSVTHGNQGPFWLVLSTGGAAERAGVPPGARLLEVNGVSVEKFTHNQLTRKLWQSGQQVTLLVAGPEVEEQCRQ

pKd | Binder
below the threshold | ILRKSTTTTV [PRR16, Q569H4]

Target: MAGI2_4, Q86UL8
Assay: holdup assay
Set-up: key: below the threshold = too weak to quantify, mostly under pKd 3.1 to 4
Conditions: plain residues with an end cap or a label only (N-terminal biotin on a linker: ado-ado)

MAGI2_4, Q86UL8, sequence (Q86UL8 772-865): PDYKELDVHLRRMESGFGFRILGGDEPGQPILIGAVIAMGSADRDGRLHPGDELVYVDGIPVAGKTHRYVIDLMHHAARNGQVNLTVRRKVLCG

pKd | Binder
4.14 | ILRKSTTTTV [PRR16, Q569H4]

Target: LAP2, Q96RT1
Assay: holdup assay
Set-up: key: below the threshold = too weak to quantify, mostly under pKd 3.1 to 4
Conditions: plain residues with an end cap or a label only (N-terminal biotin on a linker: ado-ado)

LAP2, Q96RT1, sequence (Q96RT1 other isoform, or with tags, fused parts or gaps): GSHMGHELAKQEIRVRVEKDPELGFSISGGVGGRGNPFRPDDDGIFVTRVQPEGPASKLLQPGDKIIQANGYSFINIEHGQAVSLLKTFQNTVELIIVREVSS

pKd | Binder
below the threshold | ILRKSTTTTV [PRR16, Q569H4]

Target: LDB3, O75112
Assay: holdup assay
Set-up: key: below the threshold = too weak to quantify, mostly under pKd 3.1 to 4
Conditions: plain residues with an end cap or a label only (N-terminal biotin on a linker: ado-ado)

LDB3, O75112, sequence (O75112 1-94): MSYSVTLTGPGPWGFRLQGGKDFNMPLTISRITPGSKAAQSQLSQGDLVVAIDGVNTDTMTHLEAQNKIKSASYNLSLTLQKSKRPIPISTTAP

pKd | Binder
below the threshold | ILRKSTTTTV [PRR16, Q569H4]

Target: T7, HTRA3, P83110
Assay: holdup assay
Set-up: key: below the threshold = too weak to quantify, mostly under pKd 3.1 to 4
Conditions: plain residues with an end cap or a label only (N-terminal biotin on a linker: ado-ado)

pKd | Binder
below the threshold | ILRKSTTTTV [PRR16, Q569H4]

Target: GOPC, Q9HD26
Assay: holdup assay
Set-up: key: below the threshold = too weak to quantify, mostly under pKd 3.1 to 4
Conditions: plain residues with an end cap or a label only (N-terminal biotin on a linker: ado-ado)

pKd | Binder
3.92 | ILRKSTTTTV [PRR16, Q569H4]

Target: T8, NHERF3_3, Q5T2W1
Assay: holdup assay
Set-up: key: below the threshold = too weak to quantify, mostly under pKd 3.1 to 4
Conditions: plain residues with an end cap or a label only (N-terminal biotin on a linker: ado-ado)

pKd | Binder
below the threshold | ILRKSTTTTV [PRR16, Q569H4]

Target: GRID2IP_2, A4D2P6
Assay: holdup assay
Set-up: key: below the threshold = too weak to quantify, mostly under pKd 3.1 to 4
Conditions: plain residues with an end cap or a label only (N-terminal biotin on a linker: ado-ado)

GRID2IP_2, A4D2P6, sequence (A4D2P6 272-370): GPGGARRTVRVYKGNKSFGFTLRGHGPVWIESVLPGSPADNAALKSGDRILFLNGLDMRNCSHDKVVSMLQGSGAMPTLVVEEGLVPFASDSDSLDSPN

pKd | Binder
3.8 | ILRKSTTTTV [PRR16, Q569H4]

Target: T9, LNX2_2, Q8N448
Assay: holdup assay
Set-up: key: below the threshold = too weak to quantify, mostly under pKd 3.1 to 4
Conditions: plain residues with an end cap or a label only (N-terminal biotin on a linker: ado-ado)

pKd | Binder
4.84 | ILRKSTTTTV [PRR16, Q569H4]

Target: SCRIB_3, Q14160
Assay: holdup assay
Set-up: key: below the threshold = too weak to quantify, mostly under pKd 3.1 to 4
Conditions: plain residues with an end cap or a label only (N-terminal biotin on a linker: ado-ado)

SCRIB_3, Q14160, sequence (Q14160 999-1103): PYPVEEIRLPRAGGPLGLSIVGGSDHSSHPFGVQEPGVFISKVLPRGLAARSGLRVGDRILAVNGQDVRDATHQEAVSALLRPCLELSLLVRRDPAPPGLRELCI

pKd | Binder
3.67 | ILRKSTTTTV [PRR16, Q569H4]

Target: TJP2_1, Q9UDY2
Assay: holdup assay
Set-up: key: below the threshold = too weak to quantify, mostly under pKd 3.1 to 4
Conditions: plain residues with an end cap or a label only (N-terminal biotin on a linker: ado-ado)

TJP2_1, Q9UDY2, sequence (Q9UDY2 24-128): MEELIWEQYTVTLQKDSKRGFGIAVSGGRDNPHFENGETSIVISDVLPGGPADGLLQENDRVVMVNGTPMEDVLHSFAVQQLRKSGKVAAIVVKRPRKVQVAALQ

pKd | Binder
3.83 | ILRKSTTTTV [PRR16, Q569H4]

Target: SNX27, Q96L92
Assay: holdup assay
Set-up: key: below the threshold = too weak to quantify, mostly under pKd 3.1 to 4
Conditions: plain residues with an end cap or a label only (N-terminal biotin on a linker: ado-ado)

pKd | Binder
5.15 | ILRKSTTTTV [PRR16, Q569H4]
